# Measurements as given in US7514408.
# Target: β-secretase (enzyme preparation not stated for the inhibitor assays) (human) (UniProt P56817)
# Experiment: cell-based or functional assay
# Sequence of β-secretase (enzyme preparation not stated for the inhibitor assays) (human) (P56817 46-501 limits assumed): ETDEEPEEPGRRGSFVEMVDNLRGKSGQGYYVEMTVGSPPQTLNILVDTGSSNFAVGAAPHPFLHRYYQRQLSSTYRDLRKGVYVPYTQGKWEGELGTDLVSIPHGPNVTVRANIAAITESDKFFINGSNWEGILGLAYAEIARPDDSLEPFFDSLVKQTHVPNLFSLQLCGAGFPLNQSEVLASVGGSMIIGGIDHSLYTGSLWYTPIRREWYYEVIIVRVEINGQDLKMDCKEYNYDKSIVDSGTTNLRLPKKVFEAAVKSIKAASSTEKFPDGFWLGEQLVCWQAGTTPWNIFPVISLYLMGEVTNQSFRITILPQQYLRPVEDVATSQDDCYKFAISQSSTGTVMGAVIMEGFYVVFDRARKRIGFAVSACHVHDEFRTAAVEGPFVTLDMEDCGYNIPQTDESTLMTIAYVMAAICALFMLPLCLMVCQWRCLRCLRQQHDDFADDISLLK
substance,measurement,value
Swedish mutant P13-P5′ peptide with P1′ aspartic acid replaced with a valine (D→V) (from UniProt P05067 659-676),IC50 in an MBP M125 assay (inhibition of β-secretase activity),3000 nM
same,enzyme inhibition relative to the Swedish sequence,100 times
